Measurements reported in the DeepSol protein solubility set.

assay: soluble on expression in E. coli; label from the status in PepcDB or PDB records

Sequence | soluble on expression in E. coli
MGKRMVVVGGVAGGASAAAKAKRENPELEVVVYEKSGWVSYGACGLPYVLSGEIPRLERLVARTPEEFRKQGVLVRTRHEVVDVDYELRTLTVHDHAEGRTFQDRFDHLVLATGARPSLPPIPGTEQEGVYTLRTMEDGERLLKALPQARRAAILGAGYIGLEAAEAFRKRGLQVTLLEAKDRPLPHWDPEVGALLKEELERHGVEVWTGVKVEAFRGMGRVEAVETSEGVVPADLVLLATGIRPNTELAQAMGVALGPTGAIATDERMRTNLEGVYAAGDVAESFHRVLKRPYWLPLGDVANKHGRTAGSVIAGREARFLGVVGTAIFKAFDLAVATTGLSLEGALKEGFWAKKVFIQSRDGAHYYPGSGPLWVELVYEEGTGRLLGGAVVARGHGALRIDVLAALLHREGSVEDLLALDLAYAPPFSPVWDPLLIAAQQAR | soluble
TPMYESTSELYVLSKSTSITSLADIQTGTSLTNDYIVVVKGRPVLDQVIENLNLNESYKTLGGRVTLDNPSNSRVLNITVTDPDPQMAKTIADEIAKVASAYIAEKMKQDPPTIIQSGYDDGGAVSPNIGKNT | not soluble
MNGYIINIRYQQMGRVIYMFFFAIFGIQDKNKHIGNCNNIVCPSCGRLSMYEVYKYYKYFHIFFLPIFKWDVRYIVKTSCCGCLYELDPLVGKEFEKNPSTEIREENLQRIDRYSPFKYCSNCRTEVPVEYSYCPYCGERLLEHHHHHH | not soluble
MKLAAMIKKMCPSDSELSIPAKNCYRMVILGSSKVGKTAIVSRFLTGRFEDAYTPTIEDFHRKFYSIRGEVYQLDILDTSGNHPFPAMRRLSILTGDVFILVFSLDNRDSFEEVQRLRQQILDTKSCLKNKTKENVDVPLVICGNKGDRDFYREVDQREIEQLVGDDPQRCAYFEISAKKNSSLDQMFRALFAMAKLPSEMSPDLHRKVSVQYCDVLHKKALRNKKLLRAGSGGGGGDPGDAFGIVAPFARRPSVHSDLMYIREKASAGSQAKDKERCVIS | soluble
MIYAAEEVRARFARRGLSFDPTVEEIVRGILEAVREEGDEALDRFSRDLDGYPVEEVPKRAWREAYEDLDEDLRDALETARERIEAFYREEARGGFLRAEGGGVLAQLVRPLERVGVYVPGGSAPLLSTLLMTVVPAKVAGVREVIVASPPKVHPGVLAAAWVAGADRLFAMGGAQAIAALAYGTGRVPRVDKIVGPGNRYVVAAKRLVYGTVGIDGLAGPTETMIIADGSASPRLLAADLLAQAEHGPDSEPWLLSPDRALLERVEAELSWQLQDLPRAEVARQALEKGGLVLTKDLEEAFALANLYAPEHLSLALSDPLPWLEKVQNAGGVFLGEGSPEALGDYIAGPSHVMPTSGTARFQGGLAVRDFLKVIPVVGLSEGAARELAKKGALLARAEGLEGHARSLDLRR | soluble
MGHHHHHHSHMVETVSTKNTKNWHAPVVPAAWEAEAGESLEPWRWRLQWAGIASLHSSLGDRARLRLKKKKKKRKGHFPIQKSRKYVPFLKGICSSTPVGISRQVGQETEKRNKTQRQSIEKERGAQGTGALSLRGPAGALVSEFPQYLLIIIFTILARGV | not soluble
MGSDKIHHHHHHIEPCADYTTRELDLRNEIKGAEELEEIKYEISKSFPMDELRFPKYWSDLSNQDVLVSEFIEGKSLEEGIEEKSLSWDTLLRLFRIHGAYLFGIGTFHGDLHPGNCIIDNDGKFVFIDNGAICHAPSKVNLSLFQFFENLSSNDFDAAFDSLLGLSDSPLKSTNLDNYYKEMNKIYDGFQNQTVGEKSLTRIMMQTVQAAVEKAGADFGEEAFPIIRALMYLDGLVLRTHPDVKLIESMGPYLEEFRLGLDLENKIKNV | not soluble
ALIIVSGSEGRIEKAQNIAQLLSSRGYICLAIAYFGLEGLPKHLKRIPLECLVEAKSYLRQYPQVDSERIGIYGRSKGAELVLAEESIFNDVQCLVLNSPSDVVDEGIIGKWNSHTSSWTHLQKELPYQKFRFRDYLFSKLFRKDFPKDCSARIDIGQMHSPILLLESTVDEIWDASSAIDDIVSHYKGHYITFKKYHETGHMLTVAYQPNHRYRKDWHLLMKESEDSWLATIHFFDRHLK | not soluble
MGQSEPIVLVIFTNKDNKSDKPNDKLISETAKSVMKEFAAGSKNAAKELNDLEKKYNAHIGVYALDTKSGKEVKFNSDKRFAYASTSKAINSAILLEQVPYNKLNKKVHINKDDIVAYSPILEKYVGKDITLKALIEASMTYSDNTANNKIIKEIGGIKKVKQRLKELGDKVTNPVRYEIELNYYSPKSKKDTSTPAAFGKTLNKLIANGKLSKENKKFLLDLMLNNKSGDTLIKDGVPKDYKVADKSGQAITYASRNDVAFVYPK | soluble
SRILVSIGESFGTSEKFQKINQMVCNSDRVLKRSAEGSNPPKPLKK | soluble
MKEDKKVLHVANMTNGLIVYPDYDYIVYFPSSYTAAGTPLYFPEFAVPIDLIKALLEEKKVIMYDATVHENKELTDAFLKGVPTFLMALNRAIHGTKGLFEKLEKGYKVCPWQTPDIVQHAVYRLPKHYYKFLKKCVKLFAPEKRGKLWISIPENVELVVEKIDRRLNDNYEEIAKMIKEKKSIHTYRV | not soluble
MPERFVEMLREENGKIIVRIPGETARYANLEGKEGEYLLVDLVKVFDPHLKLPTHSIGEKAICRTVTFRDNRGYEHLGLEIPQELVNDYGMKAGEYLEAVIEHAILRDKIAAVYPNLEILNQYPYWWRKISQ | not soluble
MGSDKIHHHHHHMKILILRFSSIGDIVLTTPVIRCLKKQIPNAEIHFATKASFKSILENNPYIDKLHLLESSTASFIKQLKAERFDVVIDLHSNIRTKRIKWALKAKSFTFDKLNIRKWFYVNWKWKTMPAIHIVDRYLDTVKHLGVKNDNEGLDYFIPEKDIISRDSLPQKYAAGYVAIAIGAQHATKRLPEAKLIELIGKISHPIILLGGKDDTATAARLVAYFPDTKNILNACGTYNLNQSASIVHQCMYLYTHDTGLMHIGAALQKRIISIWGNTTPELGMYAYKTEHVNWQKEDLYCRPCSKIGYNSCPKKHFRCMNEQVLPVHEIESRWN | not soluble
SSSESEKDKERLIQAAKLFFFHIRDLVSFINRFVELFNLTMKTQILPMNLNEESCIKDFFEQMIRNFKEMQLMVDGKHKQMQKEPLCSKVLTAMTSAVEKCATIAPHHTAEDMLRNIQTSGAALVLKTSHVLVNLETSLSLLMQFPIMGLRLSDLYREETKEQSDATSDATTSEKNKSPECPKATTEETLRKLQDVLSPENAHTPVEAAADELEQFVKSMEITLQVLQKSIKTMEGDIFVLTQVQGK | soluble
MGSDKIHHHHHHMQAKTTLEQWEILQAVIDLGGYTQAANVLHRSQSSVSYQLSLLQERLGIELLTIHGRKAELTPEGENLLAQARSVIRSFHALEARAHSLKMGEQASINLVVDSTFPKDRLFHLLSTFQKQHPATRIHLTEVLRNETSAQLKARDADIYIITQREIDGCAGRWLMNVDFVAVAHSHHPLFSLPTPLSHEALSRYPCVEIVMRTPPHSQPASAESWTFTTFEAATQAVLHQVGYGWLPEARISEHITRGELHILPLQQGERRTTPLYLLAEEKGQPLGKEIIMLIELLFGRL | not soluble
MSNDDNVELTDGFHVLIDALKMNDIDTMYGVVGIPITNLARMWQDDGQRFYSFRHEQHAGYAASIAGYIEGKPGVCLTVSAPGFLNGVTSLAHATTNCFPMILLSGSSEREIVDLQQGDYEEMDQMNVARPHCKASFRINSIKDIPIGIARAVRTAVSGRPGGVYVDLPAKLFGQTISVEEANKLLFKPIDPAPAQIPAEDAIARAADLIKNAKRPVIMLGKGAAYAQCDDEIRALVEETGIPFLPMGMAKGLLPDNHPQSAAATRAFALAQCDVCVLIGARLNWLMQHGKGKTWGDELKKYVQIDIQANEMDSNQPIAAPVVGDIKSAVSLLRKALKGAPKADAEWTGALKAKVDGNKAKLAGKMTAETPSGMMNYSNSLGVVRDFMLANPDISLVNEGANALDNTRMIVDMLKPRKRLDSGTWGVMGIGMGYCVAAAAVTGKPVIAVEGDSAFGFSGMELETICRYNLPVTVIIMNNGGIYKGNEADPQPGVISCTRLTRGRYDMMMEAFGGKGYVANTPAELKAALEEAVASGKPCLINAMIDPDAGVESGRIKSLNVVSKVGKK | soluble
MSADGAEADGSTQVTVEEPVQQPSVVDRVASMPLISSTCDMVSAAYASTKESYPHVKTVCDAAEKGVRTLTAAAVSGAQPILSKLEPQIASASEYAHRGLDKLEENLPILQQPTEKVLADTKELVSSKVSGAQEMVSSAKDTVATQLSEAVDATRGAVQSGVDKTKSVVTGGVQSVMGSRLGQMVLSGVDTVLGKSEEWADNHLPLTDAELARIATSLDGFDVASVQQQRQEQSYFVRLGSLSERLRQHAYEHSLGKLRATKQRAQEALLQLSQVLSLMETVKQGVDQKLVEGQEKLHQMWLSWNQKQLQGPEKEPPKPEQVESRALTMFRDIAQQLQATCTSLGSSIQGLPTNVKDQVQQARRQVEDLQATFSSIHSFQDLSSSILAQSRERVASAREALDHMVEYVAQNTPVTWLVGPFAPGITEKAPEEKK | soluble
MGHHHHHHSHVLPIYAYGHAVGKSVTGGYVYRGCESPNLNGLYIFGDFMSGRLMALQEDRKNKKWKKQDLCLGSTTSCAFPGLISTHSKFIISFAEDEAGELYFLATSYPSAYAPRGSIYKFVDPSRRAPPGKCKYKPVPVRTKSKRIPFRPLAKTVLDLLKEQSEKAARKSSSATLASGPAQGLSEKGSSKKLASPTSSKNTLRGPGTKKKARVGPHVRQGKRRKSLKSHSGRMRPSAEQKRAGRSLP | not soluble
DFEDVHIAEARVDVPSTWRDQIVNTNAVATETHPLKCAEVETQTGSKDNQGTQTDDAGGGRPPSPSKVQASGVADFMAKVEGMVAGELVKATEEHEVLEPFTRAADDEQEPATCIHYLSPFQQDAA | not soluble
MSAEKPEVIITYCIQCQWLLRAAWLAQELLSTFSDDLGKVSLQPGTGGAFRITCDGVQLWERKADGGFPEAKVLKQRLRDQIDPARDLGHNDRQTPSNPQ | soluble
MPPPLPYDAMRSVWTDTAAPAMATVPLAGHADCDVAIVGAGITGLSAALHLAERGLRACVLEARDPGWGASGRNGGQVIPGIKHDPDEILARHGRERGEPLLHMVGTAADTVFDLIDRYGLDCHPVRRGWIQPAHSRQALDAVLARARQWRARGADVAELDAGDVARRLGTGRFLGGWIDRRAGSIQPLRYTRGLLRAALSLGAAVHGQSPVVALQREGSRWLVRCAQGASVRAEHVLIATNAYTDDLWPGLRRTVIAANSFIVATGPLDPALAPAILPGGEVASDSRRLLLYFRRDADRRFILGGRGRFADPVSDADWNHLVRGARLLYPQLADTPFVHRWSGRVALTRDFVPHVHQPSPNLRIVLGYNGRGVALATQMGNYLAREISGGEPLPYPVTPIAPIPLHGLKRLYIGLAVAYYGLCDRISLEHHHHHH | not soluble
MKKLIINYTELVDYLLENRGMDGYIYFYESMETEQGIVISFSTFDTGDSIYRMKFCPSDHGYDTSLEPGSYSQSEYGTSFEEEDVEGYIAGLDEIIADKYKEFYDEDVEVVFVD | soluble
MQSIGQVLTKASERLEERLAAVLAQYTPAYFRERIPELNELDATDEMIQKAIIQLMDRAKQIEECRGCTGFANCRRPPGQEGMVMHLTVENGHISSLHSMCDQFHAYHQEQRWQRLLALSGKAANDKNFTFDNFPDAQKKRHRKLCGYIYQFAQQFEPGGSDKGVYIYGPPGTGKTHLLLAMVNRLEERRVPVIFIRTDAIFRRMRGMLSAKESLDSLIEAYCTTPVLVIDEFAQEAGTEFTIDVMFEVVNARFANSLPTFATSNYAPDQVYEKAMRKHRLEEKVEAIRSRLNQMMKHAFMDGEDGRKKDRETF | not soluble
MLVAYDSMTGNVKRFIHKLNMPAVQIDEDLVIDEDFILITYTTGFGNVPERVLDFLERNNEKLKGVSASGNRNWGDMFGASADKISTKYEVPIVSKFELSGTNNDVEYFKERVREIATH | soluble
